Test results from the DeepSol protein solubility set.

Experiment: soluble on expression in E. coli; label from the status in PepcDB or PDB records

| Sequence | soluble on expression in E. coli |
| --- | --- |
| MMVLRMKVEWYLDFVDLNYEPGRDELIVEYYFEPNGVSPEEAAGRIASESSIGTWTTLWKLPEMAKRSMAKVFYLEKHGEGYIAKIAYPLTLFEEGSLVQLFSAVAGNVFGMKALKNLRLLDFHPPYEYLRHFKGPQFGVQGIREFMGVKDRPLTATVPKPKMGWSVEEYAEIAYELWSGGIDLLKDDENFTSFPFNRFEERVRKLYRVRDRVEAETGETKEYLINITGPVNIMEKRAEMVANEGGQYVMIDIVVAGWSALQYMREVTEDLGLAIHAHRAMHAAFTRNPRHGITMLALAKAARMIGVDQIHTGTAVGKMAGNYEEIKRINDFLLSKWEHIRPVFPVASGGLHPGLMPELIRLFGKDLVIQAGGGVMGHPDGPRAGAKALRDAIDAAIEGVDLDEKAKSSPELKKSLREVGLSKAKVGVQH | soluble |
| MSRGSSAGFDRHITIFSPEGRVYQVEYAFKAINSTNLTAVAVKGADAAVIAVQKRVPDSLIVADTVTSVYQISQSVGCCAIGMIPDAKFQIKRAQGEAASWKYKNGYDMPCELLAKKMADLNQYYTQNAEMRSLGCALLFISYDDEKGPEVYRVDPAGYYRGMKGVSVGVKQLPATSFLEKKIKKKSELTSTEAIELAIEALQTSLGIDVRSKDLEVVVVTKDNSKFTKLTSDQVEHHLNQIANRD | not soluble |
| MTADIRFDEKGLVPAIVQDAQSKEVLTLAYMNKESLEKTLETGETWFYSRSRQELWHKGATSGNVQRVVDIRYDCDADALLVLVEPAGPACHTGSYSCFSRSLDGAARTPAADRFAILNELEQIIAKRDAERPEGSYTTYLFEKGVDKILKKVGEEAAEVIIAAKNQNHEELKWEAADLLYHLLVLLREQKLPLDAVLATLAERHAQKVGAGDKKE | not soluble |
| MVTSEQLLFLEAWRAVDRAYVDKSFNGQSWFKLRETYLKKEPMDRRAQTYDAIRKLLAVLDDPFTRFLEPSRLAALRRGTAGSVTGVGLEITYDGGSGKDVVVLTPAPGGPAEKAGARAGDVIVTVDGTAVKGLSLYDVSDLLQGEADSQVEVVLHAPGAPSNTRTLQLTRQKVTINPVTFTTCSNVAAAALPPGAAKQQLGYVRLATFNSNTTAAAQQAFTELSKQGVAGLVLDIRNNGGGLFPAGVNVARMLVDRGDLVLIADSQGIRDIYSADGNSIDSATPLVVLVNRGTASASEVLAGALKDSKRGLIAGERTFGKGLIQTVVDLSDGSGVAVTVARYQTPAGVDINKIGVSPDVQLDPEVLPTDLEGVCRVLGSDAAPRLFG | soluble |
| MNFIFDIDGTICFDGCSIDSSIKQRLFKLRQANHNVIFASARPIRDLLPVIPEFADDTLIGGNGSIISKNGQIEIVSVINEHDISLIKKIIKKYQLSYIIDDKFNYASNLDSNNELYQRIDPDGKAQSLDMDEIRNPIKAILLNIDNKDFDMIAHQLVSQSHGIELIRHYSESYIDVTARGVDKYTTIQYILGTNSDYIAFGNDHNDVHMLEHASQGYFVTNQFIEHTSFFKNKNITVIDDTIYAICEVLDRYL | not soluble |
| MLPRFADIFQQGNRWLNWLEKQPEGAVRPVVIESVTKIMACGTTLMGYTNRCCSSPDCCHTKKVCFRCKSRSCPHCVVKAGAQWIQYLLSLVPYCPWQHIVFTLPCQYWSLVFHNRWLLAKMSRIAADVILEICHQADVEPGIFTVIHTWGRDQQWHPHIHLSTTAGGVTSGHTWKNLHFYARKVMSMWRYRITRLLSRKYPYLVMPDALAAEGSSKREWNRFLDTHYRRGWNVNVSRVMDNATHVAVYFGSYLKKPPVPMSRLEHYAGQDEIGLRYNSHRTKREEYLLMSGDESMERFSWHVADKGFRMVRYYVFLSPAKRRLLEEVVYIITETVRKTAMQITWRGMYQRLLKVDPLKCVLCGSQMRFTGLKRGYRLAEQVLMHEPLARMRWCG | not soluble |
| MKEETFYLVREDVLPDAMRKTLEVKKLLDRKKADSVADAVQKVDLSRSAFYKYRDAVFPFYTMVKEQIITLFFHLEDRSGALSQLLQAVADSGSNVLSIHQTIPLQGRANVTLSISTSAMEEDIHTLMNKLRKFDFVEKVEILGSGA | not soluble |
| MQFSKMHGLGNDFVVVDGVTQNVFFTPETIRRLANRHCGIGFDQLLIVEAPYDPELDFHYRIFNADGSEVSQCGNGARCFARFVTLKGLTNKKDISVSTQKGNMVLTVKDDNQIRVNMGEPIWEPAKIPFTANKFEKNYILRTDIQTVLCGAVSMGNPHCVVQVDDIQTANVEQLGPLLESHERFPERVNAGFMQIINKEHIKLRVYERGAGETQASGSGACAAVAVGIMQGLLNNNVQVDLPGGSLMIEWNGVGHPLYMTGEATHIYDGFITL | soluble |
| MPLYRTYIEGEFLLGIWKSDETTEQLLASLEHKDWYREKLAVLSEKRKHEWLSVRVLLKALCGEEKEIAYYSSGRPYLKDGSRYISISHTRGYVAVALHSSCEVGMDIEQYGTRVRKVASRFIRSDEEPAMMEGDEVYALLLHWSAKEALFKLMGVEEVDFIRHLRIFPFSLSEEGEFEACEYRTGRQERYRVRYVTHPDFVLTWIIK | not soluble |
| MAHHHHHHSLAEQIDLKTFKTDVADYEAARPEYPIGITDWITDEFLIDETSIILELGAGTGKFTPRIIASHPKEIIAVDVYPEMLDVLRKKFPNVDCRAGSAMAIPLEDESVDLVLCAQCFHWFANEEAMKEIYRVLKPNGKLGLVWNTRDDTVPWIEKVSKILGRYRKDAPSFVSWKWAELFPGHGFGKLRYCAFPFSRCLTVEELHTLMNSFSFIYKLPEEEKEKVHAELDEIAKTIPRVQNTDQIKLCYQTMAFSSEKEPAKEG | soluble |
| MSFLKCGVCTEDYSNVITNRHPKNLTCGHSICKACSSKLVSNFKILCPFCRKTTELRENENLQTNFALLEAISLFNDINESVTEPRSSGAPPNCEEHTYNLAEFVCISPNCSSRSKLMCRTCEEFGVHAGHRKGLLQVEAKKVRQNLLERQRKLQVNKKQVDDKIQALEKAALKKNDELYKEKYDEITRHYDRIRSSVAEREKTSKEVLKKSVLTSEEDNRMGQISNHVIRHLLEKKCEEVEQLVGMTDFELYRVKDKVDWNDESFSFSDVKEKPPMELKTLHVKLPEFRFEDSS | not soluble |
| MAGEKAQKKGKEKWKEKTWYTVESPPYLGSKEVTVALGEDPESMVNRIVEVPISDLTGNFKKSNEKALFRITGCEGTKCKTIFIGHYIGDDYIRRLVRRRKERIDIIEDVKTSDGSIITVKIVVVSDGKLTNTKKSEIRKALTSFIVSKGSQLSYADFVRYLIGDDSYNDMVEATKNIYPLRKIEIRKSELVSLSGMQEPQKNEPAPGGEAIAQNLEHHHHHH | soluble |
| MGSDKIHHHHHHMKSIMDSLFDSPVQTARSSSDSDAHNFFKAGPYAPLAARMRPQSLDEVVGQRHLLDSGKPLQRLIAGSGDASVILYGPPGTGKTTIASLISAGTGHEFVGLSALNSGVKEIREVIDQARRNLIHGKRTVLFIDEVHRFSKTQQDALLAAVENRTVLLVAATTENPSFSVVAPLLSRSLILQLKPLTHDDIKTVLLHALQDKRGLDNRITISDEALEQLVLLSGGDARRSLTYLEAASESLADGEELTPEIIRHNVDKAIVRYDRDGDQHYDVVSAFIKSMRGSDVDAALHYLARMIDAGEDPRFIARRLVIHASEDVGMADPQALSVAVAASQAVALIGMPEARINLAQATIHLATAPKSNAVITAIDAALADVKQGKTGPVPAHLRDGHYAGAKQLGNAVGYKYPHDDPRGIVEQQYIPNGLEDVVYYRPSEHGAEQRIESYLGKLRRIVRGQRR | not soluble |
| MAICESGALPSHVGALSYSGGAASSFFGRRNADGLNDKWLALRDAFRAAGGDLLAIEDARSAALDFVIHVNAHRLRHDVPAFVILAESEFIHPPNVDWRMLQQYKGIFTWMPDLVRRGIGTEICLAHPLGAGVVDGYQERPQLLVMIASNKALPVWRPAVDLYRERVRAIRWFEKHAPQAFALYGHDWDKSPRLPTPLGGIVHGVEFVLPWRLQWFPSWKGVIPSKREVLRHARFSLCYENVRGLRGYITEKIFDAFCAGNVPVYWGAEDITDYIPADCFIDRRAFGDYADLYRYLTSMPETRYIQYQQAICDFLVSPAAKRFSSEIFATTIVGKVLDTLGRRDE | not soluble |
| MLSPEQDLNRHADPFPFNEEPSSQDLDSLRDLVTEAETLQDMVTGGLSIDAILNVLDATGEDETIWPVEKTPPDILHLLSPEYAPETAHNTVLPDLTRKEHRIIGIDSHYRINPAQHGEIYHDKQ | not soluble |
| MAHHHHHHMGDNILDQKVDLFGGKGIFTKELDEELIKGKVHICVHSLKDVPMELPEQVQLSCFLKRDTINDAFLSVKYGTLEDMNKMKMANKMEEGSYQPKGMSQRVINQNVKRDNYEGDHYDNFIPTIGTSSLRRSSQIKYKYKNVAVKNMRGNINTRIAKLCNGQYDAIIIAKCGLERLTTKKGIRNIIGGKNKVTPKNFLINYNNTEINLTSLHIQQINKRTIYPALCQGIIAVSSHKSDKYISDVLKNINDEKAQIMANIERSFLYQIEGNCMMPIGGYAKIVNGEIVFNAVINDIHGREKYHVREVGKVESYNEIAVMAATKMKEKIGTHRFNKIREEAAQYYA | not soluble |
| MSLAKIPVLEIFGPTIQGEGRVIGRKTMFVRTAGCDYRCSWCDSAFTWDGSAKGDIKLMTAEEIYDELKRIGGDLFNHVTISGGNPALIKGIQELVDLFQDKGIFSALETQGSKFQPWMTQIDDLTISPKPPSSTMTPDLKKLDEVITQCVPSSLNLKVVVFDDKDYDFAKMIHHRYPDIPFYLQVGNPYLSDSVDNHTEKLLERYEQLVDLVMQSNDMNHVYVLPQLHTLLWSNKKGVEGHHHHHH | soluble |
| MDTQKLIEVLAREVLKEIAKRENQKLSENNEIISKKSVVTAFLGNDEVLKDELKKEASFMENIKLDSTWEEIGQCENKKRLVVSTLGINELIELSQGRKSVITEFLFNDGEVVLVEEGLEYKKYTKPAALINLYDGYLDKVREFGIKVVKRTEVKNVFCTKEKVYLKGLVTERRLRKLKLKNQTLEVDAKSKITSLAMDYIKENSIELCYERRQ | not soluble |
| MITVLRINHRPYRDKRITTHVALTARAFGASAILVDERDETLENTIRGVISNFGGSFSIKTGCNWIQEFKHFQGIRVHLTMYGRRINDVIDEIRNSGKDVMVLVGSEKVPIEAYEIADYNVSVTNQPISEVSALAIFLDRYFQGKEFEFEFRGRINVQPAERGKIVKIIPDEIECLDLLKKYGASEQLIEHVKAVEGLALKIAERCNADKRVIVAGSLLHDIGRTRTNGIDHAVAGAEILRSENIHDSVVSAVERHIGAGITREEAARLGLPEKDYVPETLEEMIVAQADNLFAGNKRLRLEEVLNIYRKRGLDSAAERIKELHRRISAIAGIDIDEIRLEHHHHHH | soluble |
| MGSDKIHHHHHHVTLDQLLMFRTVAEAGSLKAASNKLHKTQPAISQSIKQLESQLDLILFNREGYRLAITEQGRKLLQHTLRVLNEAQEMKQVAKHLAKGNEASITLAFEASFNLARILPILELTQNEFPYTQIILKQEFLTGALEALNQDKAEIIISAGGIEPIRSSHLELAYLFSGSLLDVAAPRLLSRYPNLSHVRELVNEYQIVIQDTGTGTANIEFGVQAGQRRWYVNDFYTKKMLIQSGMGWGKLPHYMIEDSLKQGALIALDLRERQNNIQLDYYVMRKPHSPLGPVAQALWQKLIAFSLS | not soluble |
| QNSPQDYLAVHNDARAQVGVGPMSWDANLASRAQNYANSRAGDCNLIHSGAGENLAKGGGDFTGRAAVQLWVSERPSYNYATNQCVGGKKCRHYTQVVWRNSVRLGCGRARCNNGWWFISCNYDPVGNWIGQRPY | soluble |
| MIRGLRQIEPYVAGVQPAERKMIKLNTNENAYGASPKVREALANFDVDNLRKYSTLEQADLRAALANNLKVKPEQLMIANGSDDVLSIAFLAFFNNDEPVLFPDLTYGFYKVWADLYRVNYHEIPLAEDFTINTEDYLADNGGIILTNPNAPTGIYKPLNEIEKLLKANQDTVVIIDEAYISFGGQSALSLLNKYNNLVITRTFSKDAALAGLRVGYAIANEPLIAVMNAVKHSINPYSVDLLAERLATAAVEDWSYYQENAKKIQKTRAWFSEQLVKQGFDVLPSQANFVLTKPHDLATAKLFEELEARKIYVRYFPKVERIKDYLRISMGTQEEMEEVVKAIEEIRG | soluble |
